Test results taken from patent US6509033B1, “Immunomodulatory peptides” (President and Fellows of Harvard College, priority 1992, dated 2003).
Ends that are not written are not given here.

Target: T1, HLA-DR1 (Homo sapiens, UniProt P01903+P01911, A100R/D57E/F55L/F60I/F76Y/I96L/L162R/M171V/P40L/Q125E/R42F/V115G/Y59C)
T1 construct: made in house; host or cells: Sf9 insect cells
Assay: Competition of synthetic peptides against 125I-labeled HA 307-319 for binding to empty HLA-DR1 (Ki)

| Ki (read-out: Ki vs HA 307-319, concentration inhibiting 50% of 125I-labeled HA 307-319 binding, 10 nM labeled peptide, 10 nM empty HLA-DR1 from Sf9 insect cells, pH 7.2, 37° C., 85 hours) [nM] | Sequence | relative binding affinity to DR1 among competitor peptides (competition against HA peptide, empty DR1, first approximation) |
| --- | --- | --- |
| – | KMRMATPLLMQALP (MRMATPLLMQALPM) [Ii 107-120, invariant chain peptide named in b65] | highest affinity of all the competitor peptides measured |
| < 10 | KMRMATPLLMQALPM [Ii 106-120] | – |
